B1: HIV-1 Vpr from NL43 (Vpr^wt) fused to the N- or C-terminal fragment of Venus [HIV-1 (NL43)] / itself (parent complex)
chain: MEQAPEDQGPQREPYNEWTLELLEELKSEAVRHFPRIWLHNLGQHIYETYGDTWAGVEAIIRILQQLLFIHFRIGCRHSRIGVTRQRRARNGASRS

This is an account of results in publication PMC2894018 (2010).

The variants in the experiment derive from B1. As to the kind of experiment: BiFC (bimolecular fluorescence complementation), flow cytometry on cells; cells cotransfected with VC and VN fusions of the same Vpr mutant; vector control 0.1; parent: 35.7. (In general: In flow cytometry, cells or beads pass a laser one at a time.)
Take chain 1 L68E: the response was 1.03 % BiFC positive cells.

For chain 1 H71R, the response was 1.65 % BiFC positive cells.

As for chain 1 A30L, the response was 1.19 % BiFC positive cells.
